Laboratory results as given in US20200355707A1.

Assays:
[1] = molecular target: prostate specific antigen (ABIN572980) (UniProt P07288); assay: in situ ellipsometry on rSAM-SA-anti-PSA sensor, buffer
[2] = molecular target: prostate specific antigen (ABIN572980) (UniProt P07288); assay: in situ ellipsometry, PSA from buffer media
[3] = molecular target: prostate specific antigen (ABIN572980) (UniProt P07288); assay: in situ ellipsometry; 100 pM antigen in borate buffer pH 8 on the antibody-modified rSAM
[4] = molecular target: prostate specific antigen (ABIN572980) (UniProt P07288); assay: ellipsometry; PSA layer formed on rSAM-SA-biotinylated anti-PSA
[5] = molecular target: prostate specific antigen (ABIN572980) (UniProt P07288); assay: in situ ellipsometry; PSA spiked into 200-fold diluted human serum
[6] = molecular target: biotinylated anti-human-serum-albumin antibody; assay: ellipsometry; biotinylated anti-HSA (5 µM) layer on streptavidin-modified rSAM; binding through biotin
[7] = molecular target: biotinylated prostate specific antigen antibody (ABIN 192197); assay: ellipsometry; biotinylated anti-PSA (5 µM) layer on streptavidin-modified rSAM; binding through biotin

Row | detection limit [1] [fM] | maximum surface coverage [2] [mg/m^2] | film thickness increase [3] [nm] | top layer thickness [4] [nm] | film thickness increase [5] [nm] | top layer thickness [6] [nm] | top layer thickness [7] [nm] | Substance
1 | 40 | 2.4 | 4 | 4 | 4 | – | – | biotinylated prostate specific antigen antibody (ABIN 192197)
2 | – | – | – | – | – | 3.4 | 4 | streptavidine (from UniProt P22629 37-163)
